Paper PMC9405973, “Altered Conformational Landscape upon Sensing Guanine Nucleotides in a Disease Mutant of Elongation Factor-like 1 (EFL1) GTPase” (Biomolecules, 2022)

Key:
[1] = substrate: Nc1nc2c(ncn2[C@@H]2O[C@H](COP(=O)(O)OP(=O)(O)OP(=O)(O)O)[C@@H](O)[C@H]2O)c(=O)[nH]1; experiment: GTP hydrolysis by PNP-coupled Enzchek phosphate assay (MESG, 360 nm), pH 7.5, 5 mM MgCl2, 6 µM Efl1 alone, Michaelis-Menten fit.; type: biochemical; details: 25.0 °C
Procedure: (§1) Finally, we measured the enzyme kinetics of mutant Efl1 R1086Q as an isolated enzyme and bound to Sdo1 using an enzymatic coupled assay with a purine nucleoside phosphorylase (PNP) enzyme. This analysis was extended to another disease mutation (EFL1 M882K) also located in domain IV of the GTPase using the equivalent yeast variant, Efl1 L910K [17]. The Km and kcat kinetic parameters were calculated using non-linear regression assuming a Michaelis–Menten model (Supplementary Table S1). […] The catalytic constant for mutant R1086Q and the wild-type enzyme consisted of 0.67 min^−1, and it was 0.58 min^−1 for mutant Efl1 L910K. […] In line with the proposed role of Sdo1 as a guanine exchange factor of Efl1, previous results have shown that the interaction of wild-type Efl1 with Sdo1 impacted its Km for GTP, decreasing its value 2–3-fold. The Km values for the complexes formed between Sdo1 and Efl1 mutants decreased by half with respect to their cognate-free counterpart and differed from each other. […] The measured Km value comprises all the microscopic rate constants of the individual reactions occurring in the enzyme, which include the binding to the substrate and product and the corresponding conformational changes.
Hydrolysis of GTP was measured using the Enzchek Phosphate Assay kit (Molecular Probes) as described by Webb. […]
Reactions were initiated and the GTPase was added after 3 min. Time courses were followed by recording the change in absorbance at 360 nm in a Cary 60 UV -Vis spectrophotometer (Agilent Technologies). Background absorbance was recorded prior to the addition of the GTPase and subtracted from the sample signals. The slope of the measured time courses corresponded to the GTP hydrolysis rate. […] Data were analysed by nonlinear regression to the M ichaelis-Menten equation with the program Origin Version 5.0 (OriginLab, Co., Northampton, MA). […]
(§2) Maximum emission at 440 nm was replotted as a function of nucleotide concentration and analysed

[2] = Enzyme kinetics of GTP hydrolysis (PNP coupled assay, Michaelis–Menten); type: biochemical, Saccharomyces cerevisiae; details: enzyme in complex with Sdo1 (25 µM Sdo1)
Procedure: as §1
Hydrolysis of GTP was measured using the Enzchek Phosphate Assay kit (Molecular Probes) as described by Webb. Standard reactions consisted of 100 µL containing 6 µM of Efl1 R1086Q and Efl1 L910K, 0.3 mM MESG, 1.0 U purine nucleoside phosphorylase (PNP) and the indicated amounts of GTP. Measurements done in the presence of effector protein contained 25 µM of Sdo1.
The reaction buffer consisted of 50 mM HEPES -KOH pH 7.5, 150 mM NaCl, 5 mM MgCl2.
Reactions were initiated and the GTPase was added after 3 min. Time courses were followed by recording the change in absorbance at 360 nm in a Cary 60 UV -Vis spectrophotometer (Agilent Technologies). Background absorbance was recorded prior to the addition of the GTPase and subtracted from the sample signals. The slope of the measured time courses corresponded to the GTP hydrolysis rate. The concentration of releas ed phosphate was estimated using a molar absorption coefficient at 360 nm of 14,386 M -1 cm-1 previously described in [2]. Data were analysed by nonlinear regression to the M ichaelis-Menten equation with the program Origin Version 5.0 (OriginLab, Co., Northampton, MA). […]
M HEPES-KOH pH 7.4, 2.5 mM magnesium acetate, 50 mM sucrose, 2 mM DTT, 0.1 mM PMSF, 0.1 mM benzamidine, 8 mM putrescine, 1 mM spermidine. […]
Dilution at the end of each titration was no longer than 2.5% of the initial volume. Data were corrected for the background signal by subtracting the fluorescence of the same ligand concentration without the GTPase in the reaction mixture.
as §2

Molecule	Km [1] [µM]	kcat [2] [s⁻¹]
Efl1 L910K (Saccharomyces cerevisiae S288C; L910K) (protein, recombinantly expressed in S. cerevisiae; isolated GTPase) MPRVESETYKRLQNDPSCIRNICIVAHVDHGKTSLSDSLLASNGIISQRLAGKIRFLDARPDEQLRGITMESSAISLYFRVLRKQEGSDEPLVSEHLVNLIDSPGHIDFSSEVSAASRLCDGAVVLVDVVEGVCSQTVTVLRQCWTEKLKPILVLNKIDRLITELQLTPQEAYIHLSKVIEQVNSVIGSFFANERQLDDLFWREQLEKNENAEYIEKDDSGIYFNPTDNNVIFASAIDGWGFNIGQLAKFYEQKLGAKRENLQKVLWGDFYMDPKTKKIINNKGLKGRSLKPLFTSLILENIWKIYQNIITSRDSEMVEKIAKTLNIKLLARDLRSKDDKQLLRTIMGQWLPVSTAVLLTVIEKLPSPLESQTDRLNTILVSESDTAAMDPRLLKAMKTCDKEGPVSAYVSKMLSIPREELPVESKRIASSDELMERSRKAREEALNAAKHAGMVENMAMMDLNDNSKNTSDLYKRAKDTVMTPEVGEQTKPKPSRNNDVFCVVSEPSSALDLEFEYEGEDDSDSQDNFGLDFVPTDIDPNDPLSSMFEYEEEDPLLESIKQISEDVNDEVDDIFDEKEECLVAFARIYSGTLRVGQEISVLGPKYDPKCPEEHIETAIITHLYLFMGKELVPLDVCPSGNIVGIRGLAGKVLKSGTLIEKGVQGVNLAGVNFHFTPIVRVAVEPANPVEMSKLVRGLKLLDQADPCVHTYVENTGEHILCTAGELHLERCLKDLTERFAGIEITHSEPAIPYRETFLSASDMNPPQNSQLGRGVHELLLSQYKITFRTFPLSGKVTDFLSQHQNSIKNILKTSTSSMDPVIESTGSSFLDKKSLLVAFEEVINQEEKSRELLSGFKVKLAGFGPSRVGCNILLSQDNLLGSLFEGTPAAFEYSDSIKNGFQLAVSEGPKANEPVQGMCVLVESVHKMSQDEIESIEDPRYQQHIVDLSGRLITSTRDAIHEAFLDWSPRIMWAIYSCDIQTSVDVLGKVYAVILQRHGKIISEEMKEGTPFFQIEAHVPVVEAFGLSEDIRKRTSGAAQPQLVFSGFECIDLDPFWVPTTEEELEELGDTADRENIARKHMNAIRRRKGLFIEEKVVENAEKQRTLKKN	185	–
Efl1 L910K • Sdo1: binary complex of mutant GTPase Efl1 L910K and effector Sdo1 (protein, UniProt P53893 1-1110; Q07953 1-250, looked up, variant L910K, binary complex) Ribosome assembly protein 1: MPRVESETYKRLQNDPSCIRNICIVAHVDHGKTSLSDSLLASNGIISQRLAGKIRFLDARPDEQLRGITMESSAISLYFRVLRKQEGSDEPLVSEHLVNLIDSPGHIDFSSEVSAASRLCDGAVVLVDVVEGVCSQTVTVLRQCWTEKLKPILVLNKIDRLITELQLTPQEAYIHLSKVIEQVNSVIGSFFANERQLDDLFWREQLEKNENAEYIEKDDSGIYFNPTDNNVIFASAIDGWGFNIGQLAKFYEQKLGAKRENLQKVLWGDFYMDPKTKKIINNKGLKGRSLKPLFTSLILENIWKIYQNIITSRDSEMVEKIAKTLNIKLLARDLRSKDDKQLLRTIMGQWLPVSTAVLLTVIEKLPSPLESQTDRLNTILVSESDTAAMDPRLLKAMKTCDKEGPVSAYVSKMLSIPREELPVESKRIASSDELMERSRKAREEALNAAKHAGMVENMAMMDLNDNSKNTSDLYKRAKDTVMTPEVGEQTKPKPSRNNDVFCVVSEPSSALDLEFEYEGEDDSDSQDNFGLDFVPTDIDPNDPLSSMFEYEEEDPLLESIKQISEDVNDEVDDIFDEKEECLVAFARIYSGTLRVGQEISVLGPKYDPKCPEEHIETAIITHLYLFMGKELVPLDVCPSGNIVGIRGLAGKVLKSGTLIEKGVQGVNLAGVNFHFTPIVRVAVEPANPVEMSKLVRGLKLLDQADPCVHTYVENTGEHILCTAGELHLERCLKDLTERFAGIEITHSEPAIPYRETFLSASDMNPPQNSQLGRGVHELLLSQYKITFRTFPLSGKVTDFLSQHQNSIKNILKTSTSSMDPVIESTGSSFLDKKSLLVAFEEVINQEEKSRELLSGFKVKLAGFGPSRVGCNILLSQDNLLGSLFEGTPAAFEYSDSIKNGFQLAVSEGPKANEPVQGMCVLVESVHKMSQDEIESIEDPRYQQHIVDLSGRLITSTRDAIHEAFLDWSPRIMWAIYSCDIQTSVDVLGKVYAVILQRHGKIISEEMKEGTPFFQIEAHVPVVEAFGLSEDIRKRTSGAAQPQLVFSGFECIDLDPFWVPTTEEELEELGDTADRENIARKHMNAIRRRKGLFIEEKVVENAEKQRTLKKN Ribosome maturation protein …: MPINQPSGQIKLTNVSLVRLKKARKRFEVACYQNKVQDYRKGIEKDLDEVLQIHQVFMNVSKGLVANKEDLQKCFGTTNVDDVIEEIMHKGEIQLSEKERQLMLNKVNNEMLTIVSAKCINPVSKKRYPPTMIHKALQELKFSPVINKPAKLQALEAIKLLVSKQIIPIVRAKMKVKVAISEPSRQPELIEKISKLIASSPGESTKPELDPWTCTGLIDPVNYRDLMTLCDKKGTVQVLDMAVIDNTTHN	–	0.0125
Efl1 WT • Sdo1: binary complex of wild-type Efl1 GTPase and effector Sdo1 (protein, UniProt P53893 1-1110; Q07953 1-250, looked up, binary complex) Ribosome assembly protein 1: MPRVESETYKRLQNDPSCIRNICIVAHVDHGKTSLSDSLLASNGIISQRLAGKIRFLDARPDEQLRGITMESSAISLYFRVLRKQEGSDEPLVSEHLVNLIDSPGHIDFSSEVSAASRLCDGAVVLVDVVEGVCSQTVTVLRQCWTEKLKPILVLNKIDRLITELQLTPQEAYIHLSKVIEQVNSVIGSFFANERQLDDLFWREQLEKNENAEYIEKDDSGIYFNPTDNNVIFASAIDGWGFNIGQLAKFYEQKLGAKRENLQKVLWGDFYMDPKTKKIINNKGLKGRSLKPLFTSLILENIWKIYQNIITSRDSEMVEKIAKTLNIKLLARDLRSKDDKQLLRTIMGQWLPVSTAVLLTVIEKLPSPLESQTDRLNTILVSESDTAAMDPRLLKAMKTCDKEGPVSAYVSKMLSIPREELPVESKRIASSDELMERSRKAREEALNAAKHAGMVENMAMMDLNDNSKNTSDLYKRAKDTVMTPEVGEQTKPKPSRNNDVFCVVSEPSSALDLEFEYEGEDDSDSQDNFGLDFVPTDIDPNDPLSSMFEYEEEDPLLESIKQISEDVNDEVDDIFDEKEECLVAFARIYSGTLRVGQEISVLGPKYDPKCPEEHIETAIITHLYLFMGKELVPLDVCPSGNIVGIRGLAGKVLKSGTLIEKGVQGVNLAGVNFHFTPIVRVAVEPANPVEMSKLVRGLKLLDQADPCVHTYVENTGEHILCTAGELHLERCLKDLTERFAGIEITHSEPAIPYRETFLSASDMNPPQNSQLGRGVHELLLSQYKITFRTFPLSGKVTDFLSQHQNSIKNILKTSTSSMDPVIESTGSSFLDKKSLLVAFEEVINQEEKSRELLSGFKVKLAGFGPSRVGCNILLSQDNLLGSLFEGTPAAFEYSDSIKNGFQLAVSEGPLANEPVQGMCVLVESVHKMSQDEIESIEDPRYQQHIVDLSGRLITSTRDAIHEAFLDWSPRIMWAIYSCDIQTSVDVLGKVYAVILQRHGKIISEEMKEGTPFFQIEAHVPVVEAFGLSEDIRKRTSGAAQPQLVFSGFECIDLDPFWVPTTEEELEELGDTADRENIARKHMNAIRRRKGLFIEEKVVENAEKQRTLKKN Ribosome maturation protein …: MPINQPSGQIKLTNVSLVRLKKARKRFEVACYQNKVQDYRKGIEKDLDEVLQIHQVFMNVSKGLVANKEDLQKCFGTTNVDDVIEEIMHKGEIQLSEKERQLMLNKVNNEMLTIVSAKCINPVSKKRYPPTMIHKALQELKFSPVINKPAKLQALEAIKLLVSKQIIPIVRAKMKVKVAISEPSRQPELIEKISKLIASSPGESTKPELDPWTCTGLIDPVNYRDLMTLCDKKGTVQVLDMAVIDNTTHN	–	0.0107
